X-ray co-crystal structure and stoichiometry N data for three molecules are collected here from publication PMC11871015, “Unraveling the molecular basis of substrate specificity and halogen activation in vanadium-dependent haloperoxidases” (Nature Communications, 2025).

The target in test [1] is T1, AmVHPO (vanadium-dependent haloperoxidase from Acaryochloris marina) (Acaryochloris marina, UniProt B0C4R0, R425S).
T1 construct: gene AM1_4975; codon-optimized synthetic gene in pET28-based vector, His-tag, E. coli BL21 (DE3); dodecamer (hexamer of dimers); active site/substrate tunnel formed by two adjacent subunits
Description: X-ray co-crystal structure. It is filed as binding. The conditions noted are these: 1 mM TMB; phosphate in place of vanadate; site at interface of two adjacent subunits (Glu139, Gln399, Phe401); pH 8.5; 20 °C.

Test [2] addresses AmVHPO R425D mutant (vanadium-dependent haloperoxidase from Acaryochloris marina, R425D) (Acaryochloris marina MBIC 11017). In words: crystal structure; hanging drop vapor diffusion at 20 °C, protein 15 mg/mL, reservoir 0.1 M Tris pH 8.5, 2 M NH4H2PO4, 0.5 mM K3VO4; R425S solved without and with 1 mM 1,3,5-trimethoxybenzene (TMB).
The target in test [3] is AmVHPO R425S mutant (vanadium-dependent haloperoxidase from Acaryochloris marina, R425S) (Acaryochloris marina MBIC 11017). The test is described as above.

T1 sequence (B0C4R0 entry or part of it R425S): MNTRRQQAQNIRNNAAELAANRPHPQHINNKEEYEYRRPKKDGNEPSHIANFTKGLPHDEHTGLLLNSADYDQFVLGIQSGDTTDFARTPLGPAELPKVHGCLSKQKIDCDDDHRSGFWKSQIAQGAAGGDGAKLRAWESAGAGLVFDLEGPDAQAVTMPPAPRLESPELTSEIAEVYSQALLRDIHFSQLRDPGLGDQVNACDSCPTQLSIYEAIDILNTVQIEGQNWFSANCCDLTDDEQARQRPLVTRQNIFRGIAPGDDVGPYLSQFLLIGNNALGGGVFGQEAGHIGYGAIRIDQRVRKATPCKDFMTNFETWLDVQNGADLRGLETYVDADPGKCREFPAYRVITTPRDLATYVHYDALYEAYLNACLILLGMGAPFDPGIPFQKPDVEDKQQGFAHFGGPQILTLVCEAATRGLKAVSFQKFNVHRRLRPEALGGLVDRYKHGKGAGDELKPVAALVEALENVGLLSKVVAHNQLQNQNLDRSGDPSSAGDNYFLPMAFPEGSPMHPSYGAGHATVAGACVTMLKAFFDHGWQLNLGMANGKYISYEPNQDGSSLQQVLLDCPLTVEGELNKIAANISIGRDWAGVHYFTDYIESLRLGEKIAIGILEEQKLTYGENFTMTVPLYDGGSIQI

Consider `COc1cc(OC)cc(OC)c1` [compound 7, 1,3,5-trimethoxybenzene], for which, in test [1], the X-ray co-crystal structure is given as 8Q22 (AmVHPO R425S mutant with TMB).
For orientation: stoichiometry N means the number of molecules, sites or subunits per partner or assembly. Consider “AmVHPO R425D mutant (vanadium-dependent haloperoxidase from Acaryochloris marina, R425D) (enzyme)”, for which, in test [2], the stoichiometry N came to 12.
For “AmVHPO R425S mutant (vanadium-dependent haloperoxidase from Acaryochloris marina, R425S) (enzyme)”, the stoichiometry N in test [3] was 12.
